This data set concerns the target T1, CasEnd-28 (synthetic construct).
T1 chain: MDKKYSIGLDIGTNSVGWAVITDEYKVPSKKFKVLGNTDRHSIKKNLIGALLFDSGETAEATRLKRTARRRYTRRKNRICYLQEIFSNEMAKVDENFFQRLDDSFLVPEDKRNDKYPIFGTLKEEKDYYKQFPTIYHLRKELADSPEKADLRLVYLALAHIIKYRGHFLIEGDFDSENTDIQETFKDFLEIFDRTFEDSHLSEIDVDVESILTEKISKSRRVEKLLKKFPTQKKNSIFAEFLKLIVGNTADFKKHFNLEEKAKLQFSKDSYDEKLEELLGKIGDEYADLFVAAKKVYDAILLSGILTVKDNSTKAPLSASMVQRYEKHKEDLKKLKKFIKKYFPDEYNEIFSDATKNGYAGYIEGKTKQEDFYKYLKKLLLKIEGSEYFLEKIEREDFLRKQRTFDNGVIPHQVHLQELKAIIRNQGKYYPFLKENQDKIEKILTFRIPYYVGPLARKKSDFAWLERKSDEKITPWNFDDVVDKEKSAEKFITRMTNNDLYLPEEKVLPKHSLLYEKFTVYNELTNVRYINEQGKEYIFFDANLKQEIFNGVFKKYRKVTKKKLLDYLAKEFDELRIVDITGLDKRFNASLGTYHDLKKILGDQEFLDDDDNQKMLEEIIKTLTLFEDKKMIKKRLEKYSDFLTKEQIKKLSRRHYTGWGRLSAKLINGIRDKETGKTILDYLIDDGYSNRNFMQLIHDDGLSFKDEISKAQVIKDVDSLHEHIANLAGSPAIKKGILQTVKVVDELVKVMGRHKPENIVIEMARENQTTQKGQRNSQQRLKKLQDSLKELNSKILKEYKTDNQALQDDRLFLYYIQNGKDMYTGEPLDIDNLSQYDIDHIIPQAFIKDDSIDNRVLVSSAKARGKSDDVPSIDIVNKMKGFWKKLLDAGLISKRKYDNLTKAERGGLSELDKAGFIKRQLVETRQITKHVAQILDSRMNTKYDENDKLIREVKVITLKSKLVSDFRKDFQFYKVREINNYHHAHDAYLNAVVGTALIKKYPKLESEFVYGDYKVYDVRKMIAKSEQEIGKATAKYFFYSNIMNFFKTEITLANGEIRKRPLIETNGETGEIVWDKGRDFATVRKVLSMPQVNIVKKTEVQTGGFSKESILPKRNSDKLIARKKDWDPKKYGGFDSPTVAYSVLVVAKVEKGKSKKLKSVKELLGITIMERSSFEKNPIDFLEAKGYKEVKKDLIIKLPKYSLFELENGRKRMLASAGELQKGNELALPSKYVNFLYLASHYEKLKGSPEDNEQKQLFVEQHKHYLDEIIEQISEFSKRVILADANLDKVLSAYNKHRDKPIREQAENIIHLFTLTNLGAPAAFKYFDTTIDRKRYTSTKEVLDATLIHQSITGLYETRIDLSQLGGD
In words: cell_activity; +++; K562, second nick guide SEQ 380; PAM not stated. The method, then: The ability of the candidate endonucleases, including endonucleases 1-38 (CasEnds 1-38) (set forth in Table 1 and SEQ ID NOS: 1-38, respectively), to mediate target nucleic acid editing in cells was assessed by amplicon sequencing of the endogenous hemoglobin subunit beta (eHBB) gene, wherein the percent of amplicons displaying the intended edit is measured. The editing system is comprised of a template RNA (designed to introduce the Single Nucleotide Polymorphism), a second nick guide RNA, and a fusion protein consisting of retroviral reverse transcriptase and the individual subject Cas endonuclease.
Briefly, 250 ng of plasmid DNA encoding the subject fusion protein (containing one of the subject CasEnds), 250 ng each of plasmid DNA encoding the template RNA and the second nick guide RNA were added to 15 μL Lonza SF buffer containing 250,000 K562 cells. Nucleofection was mediated utilizing program FF-120-DA on a Lonza nucleofector. The day of nucleofection was marked as day 0. At day 3, the cells were harvested and subjected to lysis buffer treatment overnight. Genomic DNA was extracted and used for targeted amplicon sequencing to evaluate the performance of each Cas endonucleases based on their percent edit efficiencies.

B1: HBB template RNA ; HBB protospacer (ssRNA ; dsDNA)
RNA: CAUGGUGCACCUGACUCCUGGUUUUAGAGCUAGAAAUAGCAAGUUAAAAUAAGGCUAGUCCGUUAUCAACUUGAAAAAGUGGCACCGAGUCGGUGCACGGCAGACUUCUCUGCCGGAGUCAGGUGC
DNA 1: CATGGTGCACCTGACTCCTG
DNA 2: CAGGAGTCAGGTGCACCATG
Consider B1, for which the activity was ≥ 100 % of reference.

Values taken from patent US20250092426, “CAS ENDONUCLEASES AND RELATED METHODS” (Flagship Pioneering Innovations VII, LLC, published 2025).
